Laboratory results taken from patent US20240317826A1, “COMPOSITIONS AND METHODS FOR TREATING AND/OR I[…] AGENT FOR TREATING HIV-1 INFECTIONS” (priority 2021, published 2024).

Key:
[1] = target: T1, IN-CTD (Human immunodeficiency virus type 1 group M subtype B, UniProt P04585); assay: Alpha proximity assay, binding of His6-SUMO-INI1183-304 to GST-CTD; set-up: species or system HIV-1
T1 construct: pGEX3x-IN and pGST-IN-CTD(aa 201-288) were used as templates; made in house; host or cells: bacteria (E. coli)
Method: FIG. 16A-FIG. 16H show quantitative Alpha protein-protein interaction assay to determine the interaction of IN, CTD, and the mutants with INI1 and INI1183-304. […] A titration curve was generated with increasing concentrations of His6-SUMO-INI1183-304 with two different fixed concentration of GST-CTD and the interactions were detected as Alpha Score. The KD values were determined by nonlinear regression analysis using specific binding with Hill slope analysis in GraphPad Prism. Data from one representative experiment is depicted. FIG. 16B and FIG. 16C show effect of salt on the interactions of GST-CTD either with His6-SUMO-INI1183-304 or biotinylated(Bio)-TAR RNA (n=3 independent experiments). The interaction was tested using fixed concentrations of GST-CTD (0.75 μM) and increasing concentrations of His6-SUMO-INI1183-304 (or Bio-TAR RNA) in two different NaCl conditions (100 and 500 mM). […] The IC50 values were determined by fitting the data to a four-parameter dose-response curve using GraphPad prism. […]
AlphaScreen proximity assay to detect the protein-protein and protein-RNA interactions. […] The Alpha score readings were measured using Alpha-compatible Envision 2105 multi-plate reader (Perkin-Elmer). All the experiments related to this method were carried out 3 to 5 times and data were analyzed by using Graph Pad Prism 9 version 9.0.0 (GraphPad Software, CA). […]

[2] = system: HIV-1 particle production; details: by binding to IN within GagPol; cited from earlier work

Molecule	KD for binding, IN-CTD/INI1183-304 [1]	inhibition of HIV-1 particle production [2]
INI1183-304: INI1 fragment aa 183-304 (Rpt1, linker, part of Rpt2), expressed as His6-SUMO fusion (protein, left off: large carriers, INI1 fragment aa 183-304 (Rpt1, linker, part of Rpt2), expressed as His6-SUMO fusion) PEVLVPIRLDMEIDGQKLRDAFTWNMNEKLMTPEMFSEILCDDLDLNPLTFVPAIASAIRQQIESYPTDSILEDQSDQRVIIKLNIHVGNISLVDQFEWDMSEKENSPEKFALKLCSELGLG	low nM	–
S6: INI1 fragment (aa 183-294) harboring the Rpt1 domain, linker region and a part of Rpt2 (protein, UniProt Q12824 183-294, looked up, fragment) PEVLVPIRLDMEIDGQKLRDAFTWNMNEKLMTPEMFSEILCDDLDLNPLTFVPAIASAIRQQIESYPTDSILEDQSDQRVIIKLNIHVGNISLVDQFEWDMSEKENSPEKFA	–	trans-dominantly inhibits HIV-1 particle production
